Measured values as given in paper PMC4853472, “Trapping mammalian protein complexes in viral particles” (Nature Communications, 2016).

Key:
[1] = target: MAL TIR (Homo sapiens) (UniProt P58753); settings: cited from earlier work
[2] = target: T1, HMG-CoA reductase enzyme (HMGCR) (Homo sapiens, UniProt P04035); experiment: Virotrap: trapping in GAG-eDHFR virus-like particles, LC-MS/MS; assay type: cell-based; settings: MTX-PEG-simvastatin conjugate, not free simvastatin; 1 uM on HEK293T producer cells; DMSO and unrelated-bait controls
T1 construct: endogenous protein of HEK293T cells, trapped in GAG-eDHFR virus-like particles, identified by LC-MS/MS
T1 sequence (P04035 1-888): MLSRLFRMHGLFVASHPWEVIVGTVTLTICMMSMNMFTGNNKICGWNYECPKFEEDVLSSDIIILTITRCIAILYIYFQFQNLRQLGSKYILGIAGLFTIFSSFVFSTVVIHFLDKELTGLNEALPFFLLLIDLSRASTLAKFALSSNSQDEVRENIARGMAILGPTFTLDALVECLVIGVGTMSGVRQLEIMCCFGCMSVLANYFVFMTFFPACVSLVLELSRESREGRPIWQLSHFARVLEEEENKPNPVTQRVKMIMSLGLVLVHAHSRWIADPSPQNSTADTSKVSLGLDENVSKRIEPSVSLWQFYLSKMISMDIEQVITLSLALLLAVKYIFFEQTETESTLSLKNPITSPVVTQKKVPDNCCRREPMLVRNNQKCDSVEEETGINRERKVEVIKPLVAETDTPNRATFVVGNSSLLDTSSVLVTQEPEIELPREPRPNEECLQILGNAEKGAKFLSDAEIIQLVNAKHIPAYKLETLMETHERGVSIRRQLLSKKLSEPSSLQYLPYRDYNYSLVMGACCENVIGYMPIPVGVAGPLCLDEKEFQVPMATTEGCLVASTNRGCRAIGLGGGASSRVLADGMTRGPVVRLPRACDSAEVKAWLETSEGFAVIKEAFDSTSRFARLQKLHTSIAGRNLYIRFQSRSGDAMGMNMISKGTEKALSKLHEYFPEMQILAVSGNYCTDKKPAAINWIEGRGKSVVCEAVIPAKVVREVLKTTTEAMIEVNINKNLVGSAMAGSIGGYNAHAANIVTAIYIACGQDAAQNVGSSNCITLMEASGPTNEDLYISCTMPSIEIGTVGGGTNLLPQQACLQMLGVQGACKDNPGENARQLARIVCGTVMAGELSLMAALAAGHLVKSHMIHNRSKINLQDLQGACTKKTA

MAL TIR (Homo sapiens), sequence (P58753 81-216): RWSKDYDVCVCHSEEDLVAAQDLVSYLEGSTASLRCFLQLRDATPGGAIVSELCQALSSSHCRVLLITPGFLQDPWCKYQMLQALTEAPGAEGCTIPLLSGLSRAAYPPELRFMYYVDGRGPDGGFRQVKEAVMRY

Compound	Kd [1]	Protein trapped in virus-like particles (LC-MS/MS) [2]
MYD88 TIR (from UniProt Q99836)	8 µM	–
C[C@H]1C=C2C=C[C@H](C)[C@H](CC[C@@H]3C[C@@H](O)CC(=O)O3)[C@H]2[C@@H](OC(=O)C(C)(C)Cc2cn(CCOCCOCCOCCOCCOCCNC(=O)CC[C@H](NC(=O)c3ccc(N(C)Cc4cnc5nc(N)nc(N)c5n4)cc3)C(=O)O)nn2)C1 [MTX-linked simvastatin]	–	consistent enrichment of the known targets for simvastatin (HMG-CoA reductase enzyme (HMGCR))
